These results are taken from patent publication US20250333523A1 (Alector, published 2025).

Usually Kd stands for the concentration at which binding is half-saturated. As a reminder, the koff is the first-order rate constant of dissociation. As a reminder, the kon is the second-order rate constant of association.

Read-outs that look alike come from different tables or passages of the source.

Assay [1] deals with T1, Avi/His-HuIL18BPa (recombinant human IL-18BP isoform A with Avi and poly-His tags) (human, biotinylated with BirA on the Avi tag in some assays).
T1 construct: also called human IL-18BP-Avi-His
T1 chain: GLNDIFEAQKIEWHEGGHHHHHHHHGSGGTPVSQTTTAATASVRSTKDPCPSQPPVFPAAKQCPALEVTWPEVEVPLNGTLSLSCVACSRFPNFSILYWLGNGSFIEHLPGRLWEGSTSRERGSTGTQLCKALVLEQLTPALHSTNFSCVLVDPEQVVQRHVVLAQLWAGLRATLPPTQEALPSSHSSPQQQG
Description: SPR Carterra LSA, IgG immobilized.

For assay [2], the target named is T1, Avi/His-HuIL18BPa (recombinant human …). Description: blocking ELISA, competitor human IL-18. For orientation: In an ELISA, binding on a coated surface is turned into a signal by an enzyme label.
The target is the same in assay [3]. Description: ELISA, coated IL-18BP.
The target of assay [4] is T2, Avi/HisMsIL18BPd (recombinant mouse IL-18BP with Avi and poly-His tags) (mouse, biotinylated with BirA on the Avi tag in some assays).
T2 construct: also called murine IL-18BP; IL-18BP-Avi-His (mouse)
T2 chain: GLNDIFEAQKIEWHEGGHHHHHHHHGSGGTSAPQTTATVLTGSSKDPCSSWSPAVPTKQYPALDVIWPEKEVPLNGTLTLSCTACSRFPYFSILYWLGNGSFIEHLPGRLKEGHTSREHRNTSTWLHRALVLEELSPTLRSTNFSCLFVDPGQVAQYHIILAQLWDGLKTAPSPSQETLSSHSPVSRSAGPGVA
Description: ELISA, coated IL-18BP.

In assay [5] the target is T3, mouse IL-18BPd-human IgG Fc (R&D Systems, Cat. #122-BP-100) (mouse; human, UniProt Q9Z0M9 29-193).
T3 construct: Bought; also called mouse IL-18BPd-Fc Chimera
T3 sequence (looked up): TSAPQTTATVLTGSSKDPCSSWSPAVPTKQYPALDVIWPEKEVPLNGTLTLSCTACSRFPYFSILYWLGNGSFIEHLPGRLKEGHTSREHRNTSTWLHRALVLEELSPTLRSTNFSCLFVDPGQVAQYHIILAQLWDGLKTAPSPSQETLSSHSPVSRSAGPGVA
The experiment in a line: blocking ELISA, competitor mouse IL-18.

Assay [6] addresses T1, Avi/His-HuIL18BPa (recombinant human …). Description: cell-based or functional assay.
Assay [7] deals with T2, Avi/HisMsIL18BPd (recombinant mouse …). Description: cell-based or functional assay.
The target in assay [8] is T1, Avi/His-HuIL18BPa (recombinant human …). Description: cell-based or functional assay.
Assay [9] concerns the target T2, Avi/HisMsIL18BPd (recombinant mouse …). Description: cell-based or functional assay.
In assay [10] the target is T1, Avi/His-HuIL18BPa (recombinant human …). The experiment in a line: SPR Biacore T200, IgG captured on Protein A/G. Background: In SPR one partner is held on a chip, and binding of the other changes the refractive index at the surface.
Assay [11] addresses T4, His/Avi-CynoIL18BP (recombinant cynomolgus IL-18BP with His and Avi tags) (cynomolgus monkey).
T4 construct: also called cynomolgus IL-18BP-Avi-His
T4 chain: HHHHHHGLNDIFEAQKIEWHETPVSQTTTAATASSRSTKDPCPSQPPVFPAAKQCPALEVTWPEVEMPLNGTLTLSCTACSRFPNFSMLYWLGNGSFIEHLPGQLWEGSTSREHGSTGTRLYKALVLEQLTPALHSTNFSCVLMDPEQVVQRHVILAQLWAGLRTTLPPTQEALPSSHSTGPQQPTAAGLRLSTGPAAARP
The experiment in a line: SPR Biacore T200, IgG captured on Protein A/G.

B1: anti-IL18BP antibody BP-14 (antibody, human IgG1, V domains shown)
VH: QVQLVQSGAEVKKPGASVKVSCKASGYTFTGYYMHWVRQAPGQGLEWMGIINPRGGSTSHAQKFQGRVTMTRDTSTSTVYMELSSLRSEDTAVYYCARGLELHWFDPWGQGTLVTVSS
VL: DIQMTQSPSSLSASVGDRVTITCRASQNIRSWLAWYQQKPGKAPKLLIYAASSLQSGVPSRFSGSGSGTDFTLTISSLQPEDFATYYCQQANSFPYTFGQGTKLEIK
B1: in [1], the Kd was determined as 3.2 nM. In assay [2], the “blocking ELISA signal normalized to isotype control (=1)” value is 0.069 ratio to isotype control. For the same molecule, in assay [3], the “ELISA binding ratio (fold-change over background)” value is 36.3 fold over background. In addition, the “ELISA binding ratio (fold-change over background)” value in assay [4] is 45.1 fold over background. The “blocking ELISA signal normalized to isotype control (=1)” value in [5] was 0.202 ratio to isotype control. Also, in [6], the “EC50 of IFNγ release, human PBMC” value is 3.47 nM and the “Fold change of IFNγ at 10 µg/ml vs baseline, human PBMC” value is 8.86 fold. Moreover, in assay [7], the “EC50 of IFNγ release, mouse splenocytes” value amounted to 2.93 nM and the “Fold change of IFNγ at 10 µg/ml vs baseline, mouse splenocytes” value was determined as 3.49 fold.

B2: anti-IL-18BP antibody variant BP-04.07 (antibody, V domains shown)
VH: QVQLVQSGAEVKKPGASVKVSCKASGYTFTDYDMHWVRQAPGQGLEWMGIISTYYGVVSYAQKKQGRVTMTRDKSTSTVYMELSSLRSEDTAVYYCARSGTYNYGTRESHALDYWGQGTLVTVSS
VL: DIQMTQSPSSVSASVGDRVTITCRASDNVYSNLAWYQQKPGKAPKLLIYGAISLADGVPSRFSGSGSGTDFTLTISSLQPEDFATYYCQHFWGNPYTFGQGTKLEIK
With B2, the “EC50 of IFNγ release, human PBMCs” value in assay [8] came to 4.3 nM. Further, in [9], the “EC50 of IFNγ release, mouse splenocytes” value turned out to be 51.9 nM. In addition, in assay [10], the Kd came to 1.9 nM, the koff worked out at 0.00068 s⁻¹ and the kon stood at 350000 M⁻¹ s⁻¹. Further, in assay [11], the Kd was found to be 2.4 nM, the koff came to 0.00076 s⁻¹ and the kon is 320000 M⁻¹ s⁻¹.

B3: anti-IL-18BP antibody variant BP-04.28 (antibody, V domains shown)
VH: QVQLVQSGAEVKKPGASVKVSCKASGYTFTDYDMHWVRQAPGQGLEWMGIISTYYGDVSYAQKFQGRVTMTRDKSTSTVYMELSSLRSEDTAVYYCARSGTYYYGTRESHPLDYWGQGTLVTVSS
VL: DIQMTQSPSSVSASVGDRVTITCRASDNVYSNLAWYQQKPGKAPKLLIYGAISLADGVPSRFSGSGSGTDFTLTISSLQPEDFATYYCQHFWGNPYTFGQGTKLEIK
On to B3, for which, in assay [8], the “EC50 of IFNγ release, human PBMCs” value amounted to 71.2 nM. In addition, the “EC50 of IFNγ release, mouse splenocytes” value in assay [9] was found to be 134 nM. In assay [10], the Kd was determined as 4.7 nM, the koff was determined as 0.0019 s⁻¹ and the kon came out at 410000 M⁻¹ s⁻¹. Also, in [11], the Kd worked out at 7.2 nM, the koff stood at 0.0023 s⁻¹ and the kon is 330000 M⁻¹ s⁻¹.

B4: anti-IL-18BP antibody variant BP-04.08 (antibody, V domains shown)
VH: QVQLVQSGAEVKKPGASVKVSCKASGYTFTDYDMHWVRQAPGQGLEWMGIYSTYYGDVSYAQKKQGRVTMTRDKSTSTVYMELSSLRSEDTAVYYCARSGTYNYGTRESHALDYWGQGTLVTVSS
VL: DIQMTQSPSSVSASVGDRVTITCRASDNVYSNLAWYQQKPGKAPKLLIYGAISLADGVPSRFSGSGSGTDFTLTISSLQPEDFATYYCQHFWGNPYTFGQGTKLEIK
With B4, the “EC50 of IFNγ release, human PBMCs” value in [8] came out at 174 nM. Moreover, the “EC50 of IFNγ release, mouse splenocytes” value in [9] came to 94.1 nM. Moreover, in assay [10], the Kd came out at 16 nM, the koff amounted to 0.0035 s⁻¹ and the kon amounted to 210000 M⁻¹ s⁻¹. In addition, in [11], the Kd was 56 nM, the koff was found to be 0.014 s⁻¹ and the kon was found to be 260000 M⁻¹ s⁻¹.

B5: anti-IL-18BP antibody variant BP-04.09 (antibody, V domains shown)
VH: QVQLVQSGAEVKKPGASVKVSCKASGYTFTDYDMHWVRQAPGQGLEWMGIYSTYYGVVSYAQKFQGRVTMTRDKSTSTVYMELSSLRSEDTAVYYCARSGTYYYGTRESHAFDYWGQGTLVTVSS
VL: DIQMTQSPSSVSASVGDRVTITCRASDNVYSNLAWYQQKPGKAPKLLIYGAISLADGVPSRFSGSGSGTDFTLTISSLQPEDFATYYCQHFWGNPYTFGQGTKLEIK
On to B5, for which the “EC50 of IFNγ release, human PBMCs” value in assay [8] was 3.74 nM. In addition, in assay [9], the “EC50 of IFNγ release, mouse splenocytes” value worked out at 2.04 nM. In assay [10], the Kd came out at 0.52 nM, the koff turned out to be 0.00028 s⁻¹ and the kon came to 530000 M⁻¹ s⁻¹. Also, in assay [11], the Kd came out at 1.3 nM, the koff stood at 0.0006 s⁻¹ and the kon is 450000 M⁻¹ s⁻¹.

B6: anti-IL-18BP antibody variant BP-04.29 (antibody, V domains shown)
VH: QVQLVQSGAEVKKPGASVKVSCKASGYTFTDYDMHWVRQAPGQGLEWMGIISTYYGDVSYAQKFQGRVTMTRDKSTSTVYMELSSLRSEDTAVYYCARSGTYNYGTRESHALDYWGQGTLVTVSS
VL: DIQMTQSPSSVSASVGDRVTITCRASDNVYSNLAWYQQKPGKAPKLLIYGAISLADGVPSRFSGSGSGTDFTLTISSLQPEDFATYYCQHFWGNPYTFGQGTKLEIK
For the molecule B6, the “EC50 of IFNγ release, human PBMCs” value in assay [8] was determined as 3.53 nM. The “EC50 of IFNγ release, mouse splenocytes” value in assay [9] was 45.5 nM. In assay [10], the Kd worked out at 16 nM, the koff is 0.0062 s⁻¹ and the kon stood at 390000 M⁻¹ s⁻¹. Moreover, in [11], the Kd is 32 nM, the koff was determined as 0.011 s⁻¹ and the kon was 340000 M⁻¹ s⁻¹.

B7: anti-IL-18BP antibody variant BP-04.25 (antibody, V domains shown)
VH: QVQLVQSGAEVKKPGASVKVSCKASGYTFTDYDMHWVRQAPGQGLEWMGIYSTYYGDVSYAQKFQGRVTMTRDKSTSTVYMELSSLRSEDTAVYYCARSGTYNYGTRESHALDYWGQGTLVTVSS
VL: DIQMTQSPSSVSASVGDRVTITCRASDNVYSNLAWYQQKPGKAPKLLIYGAISLADGVPSRFSGSGSGTDFTLTISSLQPEDFATYYCQHFWGNPYTFGQGTKLEIK
In the case of B7, in assay [8], the “EC50 of IFNγ release, human PBMCs” value is 5.05 nM. For the same molecule, the “EC50 of IFNγ release, mouse splenocytes” value in assay [9] amounted to 28.9 nM. For the same molecule, in assay [10], the Kd amounted to 21 nM, the koff came to 0.0061 s⁻¹ and the kon worked out at 300000 M⁻¹ s⁻¹. Besides, in [11], the Kd was 100 nM, the koff worked out at 0.022 s⁻¹ and the kon was determined as 220000 M⁻¹ s⁻¹.

B8: anti-IL-18BP antibody variant BP-04.15 (antibody, V domains shown)
VH: QVQLVQSGAEVKKPGASVKVSCKASGYTFTDYDMHWVRQAPGQGLEWMGIISTYYGDVSYAQKFQGRVTMTRDKSTSTVYMELSSLRSEDTAVYYCARSGTYNYGTRESHPLDYWGQGTLVTVSS
VL: DIQMTQSPSSVSASVGDRVTITCRASDNVYSNLAWYQQKPGKAPKLLIYGAISLADGVPSRFSGSGSGTDFTLTISSLQPEDFATYYCQHFWGNPYTFGQGTKLEIK
As to B8, the “EC50 of IFNγ release, human PBMCs” value in assay [8] worked out at 12.3 nM. Moreover, the “EC50 of IFNγ release, mouse splenocytes” value in assay [9] was found to be 43.1 nM. In [10], the Kd amounted to 12 nM, the koff was 0.0028 s⁻¹ and the kon turned out to be 240000 M⁻¹ s⁻¹. In [11], the Kd is 20 nM, the koff is 0.004 s⁻¹ and the kon is 200000 M⁻¹ s⁻¹.
